Assay [1] deals with 14 subunit-CCAN complex (constitutive centromere associated network), S. cerevisiae (S. cerevisiae) (UniProt P35201). Put plainly: SEC-MALS. On the technique in general: Size exclusion chromatography separates by hydrodynamic size, large species first.
Assay [2] deals with S. cerevisiae Cenp-A nucleosome wrapped with the 147 bp Widom 601 sequence (S. cerevisiae) (UniProt P36012). Put plainly: AUC.
Assay [3] has as its target 14 subunit-CCAN complex (constitutive centromere associated network), S. cerevisiae (S. cerevisiae) (UniProt P35201). In words: AUC.
Assay [4] has as its target S. cerevisiae Cenp-A nucleosome wrapped with the 147 bp Widom 601 sequence (S. cerevisiae) (UniProt P36012). In words: SEC-MALS + AUC.
The target in assay [5] is 14 subunit-CCAN complex (constitutive centromere associated network), S. cerevisiae (S. cerevisiae) (UniProt P35201). In words: cryo-EM structure.

For orientation: stoichiometry N means a count of units in the complex or per binding partner. On to “14 subunit-CCAN complex (constitutive centromere associated network), S. cerevisiae (from UniProt P35201;Q12262;Q12748;P47167;P43618;Q2V2P8;P38265;P38907;Q06675;Q02732;P53298;P38313;Q12493;Q06162)”, for which the stoichiometry N in assay [1], in assay [3] and in assay [5] was 2 throughout. Moreover, the stoichiometry N (CCAN per Cenp-A^Nuc) in assay [2] was 1; in assay [4], 2.

Values taken from article PMC6859074.
